# From patent publication US20080113905A1 (Eli Lilly, published 2008)
# Groups on a side chain read outwards from the residue. No end group written: not given here. *: point of attachment. DSPE = distearoyl phosphatidyl ethanolamine, CCCCCCCCCCCCCCCCCC(=O)OC[C@H](COP(=O)(O)OCCN*)OC(=O)CCCCCCCCCCCCCCCCC; maleimide = Maleimide, used for thiol-reactive attachment of PEG to a Cys (thioether bond)
# Target: human GLP-1 receptor (human, UniProt P43220 24-463)
# Experiment: cell-based or functional assay
row,"in vitro potency (EC50) in the CRE-BLAM reporter assay on HEK-293 cells expressing the human GLP-1 receptor, relative to V8GLP-1 equal to 100%",Binder
1,3%,HVEGTFTSDVSSYLEGQAAKEFIAWLVKGRGC([maleimide-PEG 40 kDa branched]) [V8C38-40 kDa PEG]
2,0.7%,HVEGTFTSDC([maleimide-PEG 40 kDa branched])SSYLEEQAAKEFIAWLVKGRG [V8E22C16-40 kDa PEG]

# Continued, binder first:
row,Binder,"in vitro potency (EC50) in the CRE-BLAM reporter assay on HEK-293 cells expressing the human GLP-1 receptor, relative to V8GLP-1 equal to 100%"
1,HVEGTFTSDC([maleimide-PEG 3.4 kDa-DSPE])SSYLEGQAAKEFIAWLVKGRG [V8C16-3.4 kDa DPSE-PEG],4%
2,HVEGTFTSDVSSYLEGQAAKEFIAWLVKGRGC([maleimide-PEG 3.4 kDa-DSPE]) [V8C38-3.4 kDa DPSE-PEG],18%
